From PMC3352997 come the findings set out here.

Where a chain is given by its changes, count along the chain named. Read-outs that look alike come from different tables or passages of the source. Some results are limits rather than exact numbers.

Assay [1] has as its target Factor Xa (activated factor X), human plasma (human). Description: enzyme inhibition kinetics.
The target of assay [2] is FXa-R240A (heparin-binding exosite mutant of factor Xa) (UniProt P00742). Description: enzyme inhibition kinetics.
The target of assay [3] is Factor XIa (activated factor XI), human plasma (human). As to the kind of experiment: enzyme inhibition kinetics.
Assay [4] shares this target. Description: enzyme inhibition kinetics. The source holds these as a separate data set.
The target in assay [5] is Factor Xa (activated factor X), human plasma (human). Description: titration of protease activity.
Factor Xa (activated factor X), human plasma (human), sequence (P00742 whole entry): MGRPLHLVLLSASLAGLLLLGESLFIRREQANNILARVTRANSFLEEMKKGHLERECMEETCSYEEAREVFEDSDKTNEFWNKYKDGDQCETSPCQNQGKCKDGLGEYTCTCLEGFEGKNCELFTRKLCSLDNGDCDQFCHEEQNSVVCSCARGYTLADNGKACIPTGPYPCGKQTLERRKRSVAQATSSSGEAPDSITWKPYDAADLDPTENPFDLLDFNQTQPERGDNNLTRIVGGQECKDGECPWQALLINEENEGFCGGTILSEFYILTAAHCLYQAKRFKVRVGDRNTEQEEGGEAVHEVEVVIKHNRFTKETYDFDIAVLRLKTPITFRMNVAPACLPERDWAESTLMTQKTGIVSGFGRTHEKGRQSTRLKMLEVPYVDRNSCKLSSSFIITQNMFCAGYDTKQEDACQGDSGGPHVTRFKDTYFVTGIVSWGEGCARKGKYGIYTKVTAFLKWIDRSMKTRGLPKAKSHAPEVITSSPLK
Assay [6] concerns the target Factor XIa (activated factor XI), human plasma (human). As to the kind of experiment: titration of protease activity.
The target of assay [7] is Factor Xa (activated factor X), human plasma (human). As to the kind of experiment: titration of protease activity. This is another data set of the same source.
Assay [8] concerns the target Factor XIa (activated factor XI), human plasma (human). Description: titration of protease activity. This is another data set of the same source.
In assay [9] the target is FXa-R240A (heparin-binding exosite mutant of factor Xa) (UniProt P00742). As to the kind of experiment: enzyme inhibition kinetics. The source holds these as a separate data set.
Assay [10] has as its target Factor Xa (activated factor X), human plasma (human). As to the kind of experiment: enzyme inhibition kinetics. This is another data set of the same source.
Assay [11] shares this target. Description: titration of protease activity. This is another data set of the same source.
Assay [12] has the same target. Description: enzyme inhibition kinetics. This is another data set of the same source.

B1: Protein Z-dependent protease inhibitor, wild type (natural protein)
chain: LAPSPQSPETPAPQNQTSRVVQAPKEEEEDEQEASEEKASEEEKAWLMASRQQLAKETSNFGFSLLRKISMRHDGNMVFSPFGMSLAMTGLMLGATGPTETQIKRGLHLQALKPTKPGLLPSLFKGLRETLSRNLELGLTQGSFAFIHKDFDVKETFFNLSKRYFDTECVPMNFRNASQAKRLMNHYINKETRGKIPKLFDEINPETKLILVDYILFKGKWLTPFDPVFTEVDTFHLDKYKTIKVPMMYGAGKFASTFDKNFRCHVLKLPYQGNATMLVVLMEKMGDHLALEDYLTTDLVETWLRNMKTRNMEVFFPKFKLDQKYEMHELLRQMGIRRIFSPFADLSELSATGRNLQVSRVLQRTVIEVDERGTEAVAGILSEITAYSMPPVIKVDRPFHFMIYEETSGMLLFLGRVVNPTLL
Take B1: the k2(app) (apparent second-order association rate constant of inhibition) in assay [1] stood at 3400 M⁻¹ s⁻¹; in [3] it was 58000 M⁻¹ s⁻¹; in [4] it was 420000 M⁻¹ s⁻¹; in [10] it was 2.5e+06 M⁻¹ s⁻¹; in assay [12], 180000 M⁻¹ s⁻¹. Moreover, the values for the k2 (second-order association rate constant of inhibition) in assay [2] and in assay [9] were 2800 M⁻¹ s⁻¹ and 30000 M⁻¹ s⁻¹, respectively. The SI (stoichiometry of inhibition) in [5] stood at 3.8 mol I/mol E; in [6], 10.2 mol I/mol E; in assay [7], 4.1 mol I/mol E; in [8], 4.3 mol I/mol E; in assay [11], 2.8 mol I/mol E.

B2: ZPI single mutant with Lys-125 substituted with Ala (natural protein)
chain: B1 chain with K104A
With B2, the fold decrease in reactivity in the presence of heparin in [1] and in assay [3] was under 2 fold throughout.

B3: ZPI-3A (ZPI with Lys-113, Lys-116 and Lys-125 substituted with Ala) (natural protein)
chain: B1 chain with K113A, K116A, K125A
Take B3: the k2(app) (apparent second-order association rate constant of inhibition) came out at 2600 M⁻¹ s⁻¹ in assay [1]; 41000 M⁻¹ s⁻¹ in assay [3]; 260000 M⁻¹ s⁻¹ in assay [4]; 2e+06 M⁻¹ s⁻¹ in [10]; 95000 M⁻¹ s⁻¹ in [12]. Moreover, the k2(app) x SI (second-order rate constant corrected for SI) in assay [1] was 12000 M⁻¹ s⁻¹; in assay [3], 540000 M⁻¹ s⁻¹; in [4] it was 1.4e+06 M⁻¹ s⁻¹; in assay [10], 6.6e+06 M⁻¹ s⁻¹; in [12] it was 360000 M⁻¹ s⁻¹. The SI (stoichiometry of inhibition) came out at 3.8 mol I/mol E in [5]; 13.3 mol I/mol E in assay [6]; 4.5 mol I/mol E in [7]; 5.2 mol I/mol E in assay [8]; 3.3 mol I/mol E in assay [11].

B4: ZPI single mutant with Lys-116 substituted with Ala (natural protein)
chain: B1 chain with K116A
As to B4, the fold decrease in reactivity in the presence of heparin in [1] and in assay [3] was under 2 fold in each case.

B5: ZPI single mutant with Lys-113 substituted with Ala (natural protein)
chain: B1 chain with K113A
For the molecule B5, the fold decrease in reactivity in the presence of heparin in assay [1] and in assay [3] was under 2 fold each time.

B6: ZPI single mutant with Arg-128 substituted with Ala (natural protein)
chain: B1 chain with R128A
Consider B6, for which the fold decrease in reactivity in the presence of heparin in [1] and in assay [3] was under 2 fold in each case.

B7: ZPI-des-NT (ZPI with the first 52 residues of the acidic N-terminal tail deleted) (domain or fragment)
chain: QLAKETSNFGFSLLRKISMRHDGNMVFSPFGMSLAMTGLMLGATGPTETQIKRGLHLQALKPTKPGLLPSLFKGLRETLSRNLELGLTQGSFAFIHKDFDVKETFFNLSKRYFDTECVPMNFRNASQAKRLMNHYINKETRGKIPKLFDEINPETKLILVDYILFKGKWLTPFDPVFTEVDTFHLDKYKTIKVPMMYGAGKFASTFDKNFRCHVLKLPYQGNATMLVVLMEKMGDHLALEDYLTTDLVETWLRNMKTRNMEVFFPKFKLDQKYEMHELLRQMGIRRIFSPFADLSELSATGRNLQVSRVLQRTVIEVDERGTEAVAGILSEITAYSMPPVIKVDRPFHFMIYEETSGMLLFLGRVVNPTLL
As to B7, the k2(app) (apparent second-order association rate constant of inhibition) was 2100 M⁻¹ s⁻¹ in assay [1], 29000 M⁻¹ s⁻¹ in assay [3], 110000 M⁻¹ s⁻¹ in [4] and 1.8e+06 M⁻¹ s⁻¹ in [10]. For the same molecule, the k2(app) x SI (second-order rate constant corrected for SI) was 15000 M⁻¹ s⁻¹ in assay [1], 450000 M⁻¹ s⁻¹ in assay [3], 940000 M⁻¹ s⁻¹ in [4] and 8.1e+06 M⁻¹ s⁻¹ in assay [10]. Moreover, the SI (stoichiometry of inhibition) in [5] is 7.3 mol I/mol E; in assay [6] it was 15.6 mol I/mol E; in assay [7], 7.4 mol I/mol E; in assay [8] it was 8.5 mol I/mol E; in [11] it was 4.5 mol I/mol E.
